Measured values: article PMC7060199, “DJ-1 suppresses ferroptosis through preserving the activity of S-adenosyl homocysteine hydrolase” (Nature Communications, 2020)

Tests used:
[1] = biological target: the molecule itself; assay: cross-linking; cells incubated with 2 mM DSS for 30 min at 25 C, quenched with 1 M Tris-HCl pH 7.4; western blot; control and DJ-1 KD
[2] = biological target: the molecule itself; assay: not stated; HEK293T cells with DJ-1 overexpression (Supplementary Fig. 6j)

B1: S-adenosyl homocysteine hydrolase (enzyme, human (endogenous in H1299), UniProt P23526 1-432, looked up)
chain: MSDKLPYKVADIGLAAWGRKALDIAENEMPGLMRMRERYSASKPLKGARIAGCLHMTVETAVLIETLVTLGAEVQWSSCNIFSTQDHAAAAIAKAGIPVYAWKGETDEEYLWCIEQTLYFKDGPLNMILDDGGDLTNLIHTKYPQLLPGIRGISEETTTGVHNLYKMMANGILKVPAINVNDSVTKSKFDNLYGCRESLIDGIKRATDVMIAGKVAVVAGYGDVGKGCAQALRGFGARVIITEIDPINALQAAMEGYEVTTMDEACQEGNIFVTTTGCIDIILGRHFEQMKDDAIVCNIGHFDVEIDVKWLNENAVEKVNIKPQVDRYRLKNGRRIILLAEGRLVNLGCAMGHPSFVMSNSFTNQVMAQIELWTHPDKYPVGVHFLPKKLDEAVAEAHLGKLNVKLTKLTEKQAQYLGMSCDGPFKPDHYRY
notes: S-adenosyl homocysteine hydrolase (SAHH) of H1299 cells; also called SAHH; source: H1299 cell lysate (control KD and DJ-1 KD)
[1]
  stoichiometry N: 4

B2: SAHH in HEK293T cells (enzyme, UniProt P23526 1-432, looked up)
chain: B1 chain
notes: S-adenosyl homocysteine hydrolase (SAHH) in HEK293T cells with DJ-1 overexpression; source: HEK293T cells
[2]
  stoichiometry N: 4
